Data as given in patent US20220016205A1, “METHODS OF OVERCOMING RESISTANCE TO IMMUNE CHECKPOINT INHIBITORS” (Board of Regents, The University of Texas System, priority 2018, published 2022).

Tests used:
[1] = system: CD4^+ T cells; assay: Western blotting of p38a and SMAD1/5/9 phosphorylation in CD4+ T cells treated with BMP7 or BMP7 plus follistatin; type: cell-based, mouse; details: BMP7 plus follistatin versus BMP7 alone, 1 hour (FIG. 4A)
Protocol: Protein extraction and Western blot analysis. Total protein was extracted by using NP40 lysis buffer (0.5% NP40, 250 mmol/1 NaCl, 50 mmol/1 HEPES, 5 mmol/1 ethylenediaminetetraacetic acid, and 0.5 mmol/1 egtazic acid) supplemented with protease inhibitors cocktails (Sigma-Aldrich). Lysates were centrifuged at 10,000×g for 10 minutes, and the supernatant was collected for experiments. Protein lysates (40 μg) were resolved on denaturing gels with 4-20% sodium dodecyl sulfate-polyacrylamide and transferred to nitrocellulose membranes (Bio-Rad Laboratories, Hercules, Calif.). Membranes were probed with primary antibodies directed against BMP7 (Abcam, Catalog #ab56023), Phospho-Smad1 (Ser463/465)/Smad5 (Ser463/465)/Smad9 (Ser465/467) (Cell Signaling Technologies, Catalog #13820), p38 MAPK (Cell Signaling Technologies, Catalog #8690), Vinculin (Cell Signaling Technologies, Catalog #13901), β-Actin (Cell Signaling Technologies, Catalog #3700), and a secondary antibody conjugated with horseradish peroxidase (Amersham GE Healthcare). […]
Co-culture experiments and treatments. Viable cells were counted with a hemocytometer (0.4% Trypan blue solution) and diluted to 40,000 cells per well in 24-wells plates. […] RNA was then isolated from RAW 264.7 or CD4^+ T cells and analyzed for p38α, IL-1α, IL-1β, TNF-α, RANTES, IL-2 and IFN-γ expression with qPCR.

[2] = system: CD4^+ T cells; assay: qPCR of p38α, IFN-γ, IL-2 in activated CD4+ T cells treated with BMP7 or BMP7 plus follistatin; type: cell-based, mouse; details: BMP7 plus follistatin compared with BMP7 only, 24 hours (FIG. 4F)
Text: Quantitative polymerase chain reaction (qPCR). Total RNA was isolated from cells and tumors with Triazol (Life Technologies) according to the manufacturer's protocol. For studies of BMP7, p38α, IL-1α, IL-1β, TNF-α, RANTES, IL-2, and IFN-γ expression, mRNA was retrotranscribed with the iScript™ gDNA Clear cDNA Synthesis Kit (BioRad) and analyzed by qPCR using SYBR Green (Life Technologies) with specific primers according to the manufacturer's protocol. The comparative Ct method was used to calculate the relative abundance of mRNAs compared with ACTB (beta-actin) expression for cancer cells or CD45 expression for immune cells.
Co-culture experiments and treatments. Viable cells were counted with a hemocytometer (0.4% Trypan blue solution) and diluted to 40,000 cells per well in 24-wells plates. Cells from 344SQP, 344SQR, 344SQ ctrl, or 344SQ-shBMP7 tumors were seeded at the top inserts (24-mm Transwell with 0.4-μm pore polycarbonate membrane insert, Sigma-Aldrich), and RAW 264.7 or CD4^+ T cells were seeded at the bottom of the transwell system. CD4^+ T cells were isolated from splenocytes by using Dynabeads Untouched Mouse CD4 Cells Kit (Thermo Fisher Scientific—Life Technologies, Catalog #11416D) and activated with LEAF purified anti-mouse CD3c antibody (5 μg/mL) and LEAF purified anti-mouse CD28 antibody (1 μg/mL) (Biolegend). […] RNA was then isolated from RAW 264.7 or CD4^+ T cells and analyzed for p38α, IL-1α, IL-1β, TNF-α, RANTES, IL-2 and IFN-γ expression with qPCR.
Next, CD4^+ T cells were co-cultured with 344SQP or 344SQR cells, and 344SQR ctrl or 344SQR shBMP7 cells, and the expression of p38α, IFN-γ, and IL-2 analyzed. […] To confirm that these findings depended on BMP7 and not on some other secreted molecule, CD4^+ T cells were treated with BMP7 with or without follistatin and p38α, IFN-γ, and IL-2 expression evaluated. […]

B1: follistatin: BMP7 antagonist protein, natural inhibitor of BMP7 (R&D Systems, Catalog #769-FS-025) (protein, UniProt P19883 30-344, looked up)
Follistatin: GNCWLRQAKNGRCQVLYKTELSKEECCSTGRLSTSWTEEDVNDNTLFKWMIFNGGAPNCIPCKETCENVDCGPGKKCRMNKKNKPRCVCAPDCSNITWKGPVCGLDGKTYRNECALLKARCKEQPELEVQYQGRCKKTCRDVFCPGSSTCVVDQTNNAYCVTCNRICPEPASSEQYLCGNDGVTYSSACHLRKATCLLGRSIGLAYEGKCIKAKSCEDIQCTGGKKCLWDFKVGRGRCSLCDELCPDSKSDEPVCASDNATYASECAMKEAACSSGVLLEVKHSGSCNSISEDTEEEEEDEDQDYSFPISSILEW
SMAD1/5/9 activation [1]: lower | p38a expression [1]: higher | expression of p38α, IFN-γ, and IL-2 [2]: higher expression
